# Reference: article PMC8315086 (2021)
# Assays:
# WT RBD-His = WT RBD-His (SARS-CoV-2, UniProt P0DTC2); assay: ELISA
# [1] = molecular target: SARS-CoV-2 S1-His protein (SARS-CoV-2); assay: ELISA
binder,measurement,setting,value
"2B11 monoclonal antibody (full-length human IgG1) (antibody, V domains shown) VH: EVQLVESGGGLVQPGGSLRLSCAASEITVSSNYMNWVRQAPGKGLEWVSVIYSGGTTYYADSVKGRFTISRDNSENTLYLQMNSLRAEDTAVYYCARDLMEVGGMDVWGQGTTVTVSS VL: LPVLTQPPSASGTPGQRVTISCSGSSSNVENDNVNWFQQQVPGSTPKLVIYNDRLRPSGVPDRFSGSKSGTSAYLAISGLQSEDEADYYCVAWDASLQSYVFGTGTKVTVL",IC50,WT RBD-His,0.589 µg/mL
same,IC50,[1],0.383 µg/mL
